Assay results reported in patent US5635216A, “Microparticle compositions containing peptides, and methods for the preparation thereof” (Eli Lilly and Company, priority 1993, dated 1997).

Tests used:
finishing swine [1] = assay: Urinary urea nitrogen excretion in finishing swine after subcutaneous injection; assay type: in vivo; settings: b137 study, FIGS. 3 and 4; barrows, 3 micrograms/kg/day injected twice per day; all time periods for 15 days
Procedure: (§1) The microparticles prepared in accordance with the previous examples were used to determine the effect of somatogenin (LY293404) concentration in different PLA/PGA microparticle concentrations. Payout characteristics were measured by urinary urea nitrogen excretion and serum growth hormone levels in finishing swine. The microparticle formulations were placed in suspension, using 2% W/V sodium carboxyl-methyl-cellulose 330 (NaCMC) in Nano-pure II purified water. The suspension was injected subcutaneously in the flank. […] Urinary nitrogen reduction is a measurement of growth hormone which is stimulated by somatogenin release from microparticles. […] The reduction was the greatest for the highest loaded (25%) microparticles, and lowest for the lowest (5%) loaded microparticles. […] The vertical bars in the figures represent the relative standard deviations. The microparticles prepared in accordance with the previous examples were used to determine the payout characteristics of somatogenin (LY293404) when administered in different PLA/PLG microparticle formulations as measured by urinary urea nitrogen excretion and serum growth hormone levels in finishing swine. The microparticle formulations were placed in suspension, using 2% W/V sodium carboxyl-methyl-cellulose 330 (NaCMC) in Nano-pure II purified water. The suspension was injected subcutaneously in the flank. […]

finishing swine [2] = assay: Serum growth hormone levels in finishing swine after subcutaneous injection; assay type: in vivo; settings: b137 study, FIGS. 3 and 4; barrows, 3 micrograms/kg/day injected twice per day; all time periods for 15 days
Procedure: as §1

B1: 4-methylhippuroyl (1) porcine GHRH (2-76)--OH (peptide)
chain: GADAIFTNNYRRVLTQLSARRLLQDILSRQQGERNQEQGARVRLGRQVDSLWADQRQLALESILATLLQEHRNSQG
modifications: 4-methylhippuroyl N-terminus
notes: analog of a natural porcine GHRH prohormone
urinary urea excretion (finishing swine [1]): reduction | serum GH levels (finishing swine [2]): elevation
